{
  "source": "IntAct's records for PubMed 20498073",
  "target": "expa_drome ex (UniProt Q07436)",
  "sequence (Q07436 whole entry)": "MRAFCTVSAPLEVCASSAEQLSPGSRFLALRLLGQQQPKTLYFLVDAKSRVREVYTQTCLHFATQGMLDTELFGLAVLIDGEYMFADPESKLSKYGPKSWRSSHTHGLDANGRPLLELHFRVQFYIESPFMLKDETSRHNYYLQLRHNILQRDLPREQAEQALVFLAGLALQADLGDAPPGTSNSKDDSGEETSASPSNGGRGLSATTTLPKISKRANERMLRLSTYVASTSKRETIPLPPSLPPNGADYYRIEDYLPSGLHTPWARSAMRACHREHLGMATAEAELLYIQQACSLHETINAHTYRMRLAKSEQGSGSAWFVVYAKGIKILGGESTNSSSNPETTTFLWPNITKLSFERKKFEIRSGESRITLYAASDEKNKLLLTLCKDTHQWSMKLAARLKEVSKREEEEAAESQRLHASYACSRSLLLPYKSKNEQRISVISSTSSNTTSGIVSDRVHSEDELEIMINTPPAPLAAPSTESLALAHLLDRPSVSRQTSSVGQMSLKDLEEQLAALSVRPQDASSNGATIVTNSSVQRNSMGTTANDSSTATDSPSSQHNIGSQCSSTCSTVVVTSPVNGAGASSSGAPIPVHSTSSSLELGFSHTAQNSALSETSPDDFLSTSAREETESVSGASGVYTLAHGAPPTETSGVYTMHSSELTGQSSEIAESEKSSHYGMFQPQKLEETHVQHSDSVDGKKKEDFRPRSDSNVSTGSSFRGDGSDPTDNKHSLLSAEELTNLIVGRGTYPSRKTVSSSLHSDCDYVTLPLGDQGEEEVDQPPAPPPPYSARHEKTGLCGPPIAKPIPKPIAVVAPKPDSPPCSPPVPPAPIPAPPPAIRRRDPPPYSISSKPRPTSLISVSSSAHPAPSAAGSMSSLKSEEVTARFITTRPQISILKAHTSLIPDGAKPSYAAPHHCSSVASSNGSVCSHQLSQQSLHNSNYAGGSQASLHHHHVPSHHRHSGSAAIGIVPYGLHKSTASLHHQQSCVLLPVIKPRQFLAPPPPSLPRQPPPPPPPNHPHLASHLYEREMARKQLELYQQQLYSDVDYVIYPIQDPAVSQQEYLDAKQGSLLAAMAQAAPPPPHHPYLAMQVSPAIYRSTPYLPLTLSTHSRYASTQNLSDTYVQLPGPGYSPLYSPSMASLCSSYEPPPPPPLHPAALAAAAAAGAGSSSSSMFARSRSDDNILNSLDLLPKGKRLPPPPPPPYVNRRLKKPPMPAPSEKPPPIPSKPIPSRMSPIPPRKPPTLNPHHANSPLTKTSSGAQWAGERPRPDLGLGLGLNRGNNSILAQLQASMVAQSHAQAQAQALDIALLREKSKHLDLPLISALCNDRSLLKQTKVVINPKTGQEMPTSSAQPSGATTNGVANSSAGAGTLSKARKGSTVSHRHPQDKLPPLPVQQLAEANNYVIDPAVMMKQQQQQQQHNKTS",
  "data": [
    {"substance": "Protein crumbs (Drosophila melanogaster (Fruit fly)), P10040 Y2119A;P2121A;E2125A", "values": [
      {"measurement": "effect of a mutation on the interaction", "value": "disrupting interaction"}
    ]}
  ]
}
